Measured values: patent publication US20130195757, “SPARC BINDING APTAMERS AND USES THEREOF” (ABRAXIS BIOSCIENCE, LLC, published 2013)

Experiments:
[1] = molecular target: T1, SPARC (osteonectin), recombinant human (Biol-SPARC) (Homo sapiens, UniProt P09486 P09486:18-303); assay: SPR; SPARC immobilized; settings: tags: Biol; amine-coupled to CM5 chip or injected as analyte
T1 sequence: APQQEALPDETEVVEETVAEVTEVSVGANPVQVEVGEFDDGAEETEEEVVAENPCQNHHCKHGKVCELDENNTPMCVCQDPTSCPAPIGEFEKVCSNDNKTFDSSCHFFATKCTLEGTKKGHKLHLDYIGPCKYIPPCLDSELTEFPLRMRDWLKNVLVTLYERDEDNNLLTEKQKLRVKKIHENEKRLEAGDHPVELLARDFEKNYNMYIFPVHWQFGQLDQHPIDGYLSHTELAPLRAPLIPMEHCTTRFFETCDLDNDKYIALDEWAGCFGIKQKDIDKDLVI
Protocol: (§1) Purified SPARC was immobilized onto the surface of a CM5 biosensor chip (GE/Biacore International AB) by the use of the amine coupling kit and the Surface Preparation tool as present in the BIACORE 3000® control software. The biosensor chip surface was activated by injecting (35 μL at a flow rate of 5 μL/min) a mixture of N-hydroxysuccinimide (NHS) and N-ethyl-N′-(dimethyl-aminopropyl)-carbodiimide (EDC) (1:1; v/v) into one of the four flow channels (Fcs). Then the SPARC, diluted (0.1 mg/mL) in coupling buffer (10 mM sodium acetate, pH 4.5), was injected and bound to the activated carboxymethylated dextran surface via its primary amine groups. After coupling, the remaining active groups were blocked with ethanolamine (1 M). Purified recombinant human VEGF165 (PeproTech, Rocky Hill, N.J.) was diluted into 100 μg/mL in sodium acetate, pH 5.5 and immobilized onto the biosensor chip surface as a control, and VEGF DNA aptamers were injected (FIG. 3). To validate recovery, the resulting bound VEGF aptamers were eluted, and 2 μL were recovered, out of which 0.5 μL was amplified by PCR.
(§2) A concentration series of selected oligonucleotide DNA were injected over both reference surface and SPARC surface. Reference surfaces were used to subtract bulk refractive index responses from the specific SPARC binding signal as well as to ensure that there is no nonspecific interaction with the sensor chip surface.

[2] = molecular target: T2, VEGF165 (Homo sapiens, UniProt P15692-4 P15692-4:27-191); assay: SPR; negligible binding; settings: tags: PeproTech; amine-coupled to CM5 chip; chain copies: 2
T2 sequence (P15692 other isoform, or with tags, fused parts or gaps): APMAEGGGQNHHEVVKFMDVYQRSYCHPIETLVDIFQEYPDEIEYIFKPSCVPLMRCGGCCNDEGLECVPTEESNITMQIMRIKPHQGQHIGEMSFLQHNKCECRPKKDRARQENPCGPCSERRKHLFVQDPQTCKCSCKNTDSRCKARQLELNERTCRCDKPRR

[3] = molecular target: T1, SPARC (osteonectin), recombinant human …; assay: SPR; SPARC immobilized on CM5; HBS 10 mM HEPES 150 mM NaCl 0.005% P-20; approx 4 pM in p171; settings: tags: Biol; amine-coupled to CM5 chip or injected as analyte
Protocol: After coupling, the remaining active groups were blocked with ethanolamine (1 M). Purified recombinant human VEGF165 (PeproTech, Rocky Hill, N.J.) was diluted into 100 μg/mL in sodium acetate, pH 5.5 and immobilized onto the biosensor chip surface as a control, and VEGF DNA aptamers were injected (FIG. 3). To validate recovery, the resulting bound VEGF aptamers were eluted, and 2 μL were recovered, out of which 0.5 μL was amplified by PCR.
as §2
FIG. 21 depicts a sensorgram showing the binding and dissociation of Apt180 (SEQ ID NO: 1) to a Biol-SPARC immobilized CM5 sensorchip as described in Example 3. […] FIG. 22 is a sensorgram showing the binding and dissociation of Biol-SPARC and a modified Apt180 having the 3′ primer region of the aptamer removed. As described in Example 3, Biol-SPARC was immobilized to CM5 sensorchip and various concentrations (0.625 μM, 1.25 μM, 2.5 μM, 5 μM, and 10 μM) of the 3′ primer deleted Apt180, were injected over the Biol-SPARC sensor chip. The resulting KD calculated from this experiment was 1.45 nM. […]

[4] = molecular target: Bovine serum albumin (Bos taurus, UniProt P02769 P02769:25-607); assay: SPR; negligible binding; settings: label: 3'-biotin
Chain of Bovine serum albumin (P02769 25-607, one chain of several): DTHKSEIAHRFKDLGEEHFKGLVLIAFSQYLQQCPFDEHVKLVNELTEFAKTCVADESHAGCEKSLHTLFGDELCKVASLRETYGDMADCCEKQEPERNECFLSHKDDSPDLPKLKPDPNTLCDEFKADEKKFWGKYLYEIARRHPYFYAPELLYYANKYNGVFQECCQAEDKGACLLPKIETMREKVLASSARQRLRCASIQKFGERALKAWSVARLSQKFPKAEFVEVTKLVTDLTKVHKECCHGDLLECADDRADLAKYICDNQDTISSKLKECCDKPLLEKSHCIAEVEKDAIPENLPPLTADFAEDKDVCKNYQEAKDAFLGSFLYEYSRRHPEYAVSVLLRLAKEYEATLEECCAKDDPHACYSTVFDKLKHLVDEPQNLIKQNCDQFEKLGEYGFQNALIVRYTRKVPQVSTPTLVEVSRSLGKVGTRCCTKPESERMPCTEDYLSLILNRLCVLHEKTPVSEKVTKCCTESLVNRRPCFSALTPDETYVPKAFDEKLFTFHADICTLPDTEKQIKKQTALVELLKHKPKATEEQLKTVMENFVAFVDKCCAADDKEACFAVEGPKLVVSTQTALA

[5] = molecular target: T3, SPARC, mouse (from PYS-2 cells) (Mus musculus, UniProt P07214 P07214:18-302); assay: SPR; aptamer immobilized on SA chip; settings: tags: Sigma; PYS-2 parietal yolk sac cells; label: 3'-biotin
T3 sequence: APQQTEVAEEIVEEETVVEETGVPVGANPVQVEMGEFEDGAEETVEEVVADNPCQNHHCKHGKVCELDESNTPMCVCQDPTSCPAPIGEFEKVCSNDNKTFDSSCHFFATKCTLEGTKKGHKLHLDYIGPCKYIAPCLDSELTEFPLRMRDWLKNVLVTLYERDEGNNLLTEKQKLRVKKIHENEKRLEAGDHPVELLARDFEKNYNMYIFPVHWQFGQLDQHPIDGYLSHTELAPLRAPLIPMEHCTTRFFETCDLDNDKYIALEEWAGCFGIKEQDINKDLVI

[6] = molecular target: T1, SPARC (osteonectin), recombinant human …; assay: SPR; heterogeneous ligand model KD1; KD2 0.103 mM; units as printed; settings: tags: Biol; amine-coupled to CM5 chip or injected as analyte
Protocol: as §1
A concentration series of selected oligonucleotide DNA were injected over both reference surface and SPARC surface. […]

[7] = molecular target: T1, SPARC (osteonectin), recombinant human …; assay: SPR; SPARC immobilized; settings: tags: Biol; amine-coupled to CM5 chip or injected as analyte; remark: listed apart in the source
[8] = molecular target: T1, SPARC (osteonectin), recombinant human …; assay: SPR; aptamer immobilized on SA chip; 1:1 Langmuir; settings: tags: Biol; amine-coupled to CM5 chip or injected as analyte; label: 3'-biotin
Protocol: 20 μM each of biotinylated Apt180 (SEQ ID NO: 1), biotinylated Apt187 (SEQ ID NO: 2), or a control scrambled aptamer with biotin coupled to the 3′-end were immobilized onto commercially prepared SA sensor chips (GE/Biacore International AB), which have preimmobilized streptavidin, to allow biotin capture. Typically 1200 to 1300 RU of biotinylated aptamers were immobilized.
Using methods as described in Examples 2-3, above, biotinylated Apt180 and Apt187 were immobilized on CM5 sensorchips immobilized with streptavidin (SA sensorchips). Biol-SPARC was injected at concentrations ranging from 34.9 nM to 840 nM over the immobilized Apt180 and Apt187. For Apt180, the resulting curves were best fitted by heterogeneous ligand model indicating the possible presence of multiple binding sites.

[9] = molecular target: T2, VEGF165; assay: SPR; VEGF immobilized; no specific interaction; settings: tags: PeproTech; amine-coupled to CM5 chip; chain copies: 2

B1: Apt231 (AptBia231) (ssDNA)
DNA: GAATTCGATGGTAACCAATGCGCTTATGTTTTTTTTATTTTTTATGTTTCATCTGATCTAGCCAAG
[1]
  Kd: 45.4 nM

B2: Apt180 (ssDNA)
DNA: GAATTCGATGGTAACCAAGGCTGTTCGGTATTTTGATATTTTTATGCGTCATCTGATCTAGCCAAG
[2]
  binding result: no binding
[3]
  Kd: 4.4 pM

B3: Apt180 3'-biotin (ssDNA)
DNA: GAATTCGATGGTAACCAAGGCTGTTCGGTATTTTGATATTTTTATGCGTCATCTGATCTAGCCAAG
[4]
  binding result: no binding
[5]
  Kd: 1200 nM

B4: Apt208 (AptBia208) (ssDNA)
DNA: GAATTCGATGGTAACCAAGCAATTTGTATTTTTGTGTATTTATTTTGTTCATCTGATCTAGCCAAG
[1]
  Kd: 100 nM

B5: Apt216 (AptBia216) (ssDNA)
DNA: GAATTCGATGGTAACCAATGATGTTATTTTTTTGTGCTTTTATTCTTTTCATCTGATCTAGCCAAG
[1]
  Kd: 447 nM

B6: Apt184 (ssDNA)
DNA: GAATTCGATGGTAACCAACCCAATGTGTTTCGTTTGTTTTCATTTGTCATCTGATCTAGCCAAG
[1]
  Kd: 277 nM

B7: Apt211 (AptBia211) (ssDNA)
DNA: GAATTCGATGGTAACCAAGGAATATTTGGGGTTTTTTGCTTCTGGACGTCATCTGATCTAGCCAAG
[6]
  Kd: 132 µM

B8: Apt187 (ssDNA)
DNA: GAATTCGATGGTAACCAAGGCGGGGTTTTCGTATGCTCATTCCAGTGGTCATCTGATCTAGCCAAG
[7]
  Kd: 0.19 nM

B9: Apt187 3'-biotin (ssDNA)
DNA: GAATTCGATGGTAACCAAGGCGGGGTTTTCGTATGCTCATTCCAGTGGTCATCTGATCTAGCCAAG
[8]
  Kd: 30.2 nM

B10: Apt100 (ssDNA)
DNA: GAATTCGATGGTAACCAAGGTCACTTTTTTATGTCGCTTAAATGTTGGTCATCTGATCTAGCCAAGC
[7]
  Kd: ~300 nM

B11: Apt207 (AptBia207) (ssDNA)
DNA: GAATTCGATGGTAACCAAGTGTATTGTTTATTCTTCTGTTTCTTATTGTCATCTGATCTAGCCAAG
[1]
  Kd: 139 nM

B12: Apt191 (ssDNA)
DNA: GAATTCGATGGTAACCAAGGGGGTGTTTGTTTTTGTAGTCATTGTTGGTCATCTGATCTAGCCAAG
[1]
  Kd: 84.2 nM
[9]
  binding result: no binding

B13: Apt181 (ssDNA)
DNA: GAATTCGATGGTAACCAATTTCCGTATTGTTGGTTTGTGTTTGTGTCGTCATCTGATCTAGCCAAG
[1]
  Kd: 298 nM
